# Experimental data: US20090311693A1
# Target: SK2 or SK3 channels (apamin-sensitive channels of MDA-MB-435s cells)
# Experiment: cell-based or functional assay
substance,measurement,value
apamin (from UniProt P01500 28-45) (peptide),"block of whole-cell outward K+ currents in MDA-MB-435s cells (patch-clamp), IC50",< 0.1 nM
